Data: paper PMC6167014 (Cancer research, 2017)
Positions count from the first letter of the chain named. In names and notes the source's numbering stands.

T1: GST-BAP1-UCH (1–250 aa) (human, UniProt Q92560 1-250)
T1 sequence (looked up): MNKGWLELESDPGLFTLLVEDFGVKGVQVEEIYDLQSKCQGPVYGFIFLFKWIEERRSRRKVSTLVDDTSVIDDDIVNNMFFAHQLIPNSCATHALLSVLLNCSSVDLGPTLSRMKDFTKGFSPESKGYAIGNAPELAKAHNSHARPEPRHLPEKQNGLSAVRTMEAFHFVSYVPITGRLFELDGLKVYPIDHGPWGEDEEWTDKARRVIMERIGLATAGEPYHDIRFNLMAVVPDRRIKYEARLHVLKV

T2: GST-BAP1 (full length) (human, UniProt Q92560 1-729)
T2 sequence (looked up): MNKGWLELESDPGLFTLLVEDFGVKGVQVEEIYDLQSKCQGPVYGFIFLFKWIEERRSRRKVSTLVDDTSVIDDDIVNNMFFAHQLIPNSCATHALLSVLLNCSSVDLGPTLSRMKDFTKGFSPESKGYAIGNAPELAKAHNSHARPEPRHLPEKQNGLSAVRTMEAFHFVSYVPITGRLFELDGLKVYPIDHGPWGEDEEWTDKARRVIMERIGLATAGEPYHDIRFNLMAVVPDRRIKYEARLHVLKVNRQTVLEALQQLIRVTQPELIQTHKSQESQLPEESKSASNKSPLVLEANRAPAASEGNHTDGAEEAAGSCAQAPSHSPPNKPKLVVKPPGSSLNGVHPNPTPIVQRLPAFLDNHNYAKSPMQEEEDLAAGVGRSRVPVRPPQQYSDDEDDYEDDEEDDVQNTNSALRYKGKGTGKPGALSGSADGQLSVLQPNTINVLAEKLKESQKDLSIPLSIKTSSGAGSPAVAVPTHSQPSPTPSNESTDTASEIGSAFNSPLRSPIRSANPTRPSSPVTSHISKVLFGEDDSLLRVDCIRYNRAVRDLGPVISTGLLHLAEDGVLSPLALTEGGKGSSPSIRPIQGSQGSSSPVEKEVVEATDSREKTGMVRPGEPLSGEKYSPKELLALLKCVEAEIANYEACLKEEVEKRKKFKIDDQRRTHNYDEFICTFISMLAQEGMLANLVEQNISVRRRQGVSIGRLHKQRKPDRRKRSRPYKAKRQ

T3: GST-BAP1-ULD (human, UniProt Q92560 601-729)
T3 sequence (looked up): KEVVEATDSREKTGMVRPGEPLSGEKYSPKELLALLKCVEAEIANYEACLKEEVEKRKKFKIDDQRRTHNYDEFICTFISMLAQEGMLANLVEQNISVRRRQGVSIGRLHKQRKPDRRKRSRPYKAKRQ

T4: His-BAP1-FL ∆E283-S285 (baculovirus) (human, UniProt Q92560 1-729, ∆E283-S285)
T4 sequence (looked up): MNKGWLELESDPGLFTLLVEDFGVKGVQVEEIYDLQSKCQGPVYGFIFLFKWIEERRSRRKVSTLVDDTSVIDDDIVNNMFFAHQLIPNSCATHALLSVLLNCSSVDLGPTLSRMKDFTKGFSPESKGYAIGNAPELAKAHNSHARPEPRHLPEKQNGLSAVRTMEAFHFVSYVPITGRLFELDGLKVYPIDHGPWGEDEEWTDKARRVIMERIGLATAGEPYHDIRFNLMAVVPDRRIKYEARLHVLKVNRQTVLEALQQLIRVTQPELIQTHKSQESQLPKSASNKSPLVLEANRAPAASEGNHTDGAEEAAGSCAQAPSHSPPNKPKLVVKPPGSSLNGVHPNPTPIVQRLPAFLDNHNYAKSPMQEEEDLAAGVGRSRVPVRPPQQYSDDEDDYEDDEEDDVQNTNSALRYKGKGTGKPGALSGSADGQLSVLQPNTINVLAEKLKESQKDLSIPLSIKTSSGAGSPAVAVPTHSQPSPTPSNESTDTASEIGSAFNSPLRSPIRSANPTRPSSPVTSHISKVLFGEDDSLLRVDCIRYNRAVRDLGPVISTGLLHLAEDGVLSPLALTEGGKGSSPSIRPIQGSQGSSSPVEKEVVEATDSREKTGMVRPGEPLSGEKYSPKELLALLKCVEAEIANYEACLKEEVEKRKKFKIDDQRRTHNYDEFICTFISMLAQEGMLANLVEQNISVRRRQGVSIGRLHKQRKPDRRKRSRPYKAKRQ

B1: His-BAP1-ULD (601–729) WT (domain or fragment, human, UniProt Q92560 601-729, looked up)
chain: T3 sequence (looked up)
B2: His-BAP1-ULD F660P (domain or fragment, human, UniProt Q92560 601-729, looked up)
chain: T3 sequence (looked up) with F60P
B3: His-BAP1-ULD L650P (domain or fragment, human, UniProt Q92560 601-729, looked up)
chain: T3 sequence (looked up) with L50P
B4: His-ASXL2-AB (261–381 aa) (domain or fragment, human, UniProt Q76L83 261-381, looked up)
chain: MKRTKCADIDVETPDSILVNTNLRALINKHTFSVLPGDCQQRLLLLLPEVDRQVGPDGLMKLNGSALNNEFFTSAAQGWKERLSEGEFTPEMQVRIRQEIEKEKKVEPWKEQFFESYYGQS
B5: His-BAP1-ULD ∆K637-C638 (sub of N) (domain or fragment, human, UniProt Q92560 601-729, looked up)
chain: KEVVEATDSREKTGMVRPGEPLSGEKYSPKELLALLNVEAEIANYEACLKEEVEKRKKFKIDDQRRTHNYDEFICTFISMLAQEGMLANLVEQNISVRRRQGVSIGRLHKQRKPDRRKRSRPYKAKRQ
B6: Flag-ASXL2 (261–649 aa) (baculovirus) (domain or fragment, human, UniProt Q76L83 261-649, looked up)
chain: MKRTKCADIDVETPDSILVNTNLRALINKHTFSVLPGDCQQRLLLLLPEVDRQVGPDGLMKLNGSALNNEFFTSAAQGWKERLSEGEFTPEMQVRIRQEIEKEKKVEPWKEQFFESYYGQSSGLSLEDSKKLTASPSDPKVKKTPAEQPKSMPVSEASLIRIVPVVSQSECKEEALQMSSPGRKEECESQGEVQPNFSTSSEPLLSSALNTHELSSILPIKCPKDEDLLEQKPVTSAEQESEKNHLTTASNYNKSESQESLVTSPSKPKSPGVEKPIVKPTAGAGPQETNMKEPLATLVDQSPESLKRKSSLTQEEAPVSWEKRPRVTENRQHQQPFQVSPQPFLNRGDRIQVRKVPPLKIPVSRISPMPFHPSQVSPRARFPVSITSP

How the values were obtained:
GST-BAP1-UCH (1–250 aa) = molecular target: T1, GST-BAP1-UCH (1–250 aa); test: pull-down
GST-BAP1 (full length) = molecular target: T2, GST-BAP1 (full length); test: pull-down
[1] = molecular target: B1; test: pull-down
GST-BAP1-ULD = molecular target: T3, GST-BAP1-ULD; test: pull-down
[2] = molecular target: T4, His-BAP1-FL ∆E283-S285 (baculovirus); test: co-IP

Binder | binding result (GST-BAP1-UCH (1–250 aa)) | binding result (GST-BAP1 (full length)) | further results
B1 | binds | – | –
B2 | binds | – | –
B3 | binds | – | –
B4 | – | binds | binding result [1]: binds; binding result (GST-BAP1-ULD): binds
B5 | binds | – | –
B6 | – | binds | binding result [2]: binds
